Drawing on patent US10087231B2, “Substitution mutant receptors and their use in an ecdysone receptor-based inducible gene expression system” (Intrexon Corporation, priority 2001, dated 2018), this text covers non-steroid ligand sensitivity for 9 molecules.

The labels stand for the following.
B1: V462L: HsRXRβ ligand binding domain substitution mutant (protein, listed as Homo sapiens)
chain: MSWAARPPFLPQRHAAGQCGPVGVRKEMHCGVASRWRRRRPWLDPAAAAAAAVAGGEQQTPEPEPGEAGRDGMGDSGRDSRSPDSSSPNPLPQGVPPPSPPGPPLPPSTAPSLGGSGAPPPPPMPPPPLGSPFPVISSSMGSPGLPPPAPPGFSGPVSSPQINSTVSLPGGGSGPPEDVKPPVLGVRGLHCPPPPGGPGAGKRLCAICGDRSSGKHYGVYSCEGCKGFFKRTIRKDLTYSCRDNKDCTVDKRQRNRCQYCRYQKCLATGMKREAVQEERQRGKDKDGDGEGAGGAPEEMPVDRILEAELAVEQKSDQGVEGPGGTGGSGSSPNDPVTNICQAADKQLFTLVEWAKRIPHFSSLPLDDQVILLRAGWNELLIASFSHRSIDVRDGILLATGLHVHRNSAHSAGVGAIFDRVLTELVSKMRDMRMDKTELGCLRAIILFNPDAKGLSNPSEVELLREKVYASLETYCKQKYPEQQGRFAKLLLRLPALRSIGLKCLEHLFFFKLIGDTPIDTFLMEMLEAPHQLA
modifications: ligand binding domain only
B2: E472D: HsRXRβ ligand binding domain substitution mutant (protein, listed as Homo sapiens)
chain: MSWAARPPFLPQRHAAGQCGPVGVRKEMHCGVASRWRRRRPWLDPAAAAAAAVAGGEQQTPEPEPGEAGRDGMGDSGRDSRSPDSSSPNPLPQGVPPPSPPGPPLPPSTAPSLGGSGAPPPPPMPPPPLGSPFPVISSSMGSPGLPPPAPPGFSGPVSSPQINSTVSLPGGGSGPPEDVKPPVLGVRGLHCPPPPGGPGAGKRLCAICGDRSSGKHYGVYSCEGCKGFFKRTIRKDLTYSCRDNKDCTVDKRQRNRCQYCRYQKCLATGMKREAVQEERQRGKDKDGDGEGAGGAPEEMPVDRILEAELAVEQKSDQGVEGPGGTGGSGSSPNDPVTNICQAADKQLFTLVEWAKRIPHFSSLPLDDQVILLRAGWNELLIASFSHRSIDVRDGILLATGLHVHRNSAHSAGVGAIFDRVLTELVSKMRDMRMDKTELGCLRAIILFNPDAKGLSNPSEVEVLREKVYASLDTYCKQKYPEQQGRFAKLLLRLPALRSIGLKCLEHLFFFKLIGDTPIDTFLMEMLEAPHQLA
modifications: ligand binding domain only
B3: G500S: HsRXRβ ligand binding domain substitution mutant, glycine to serine at 500 (protein, listed as Homo sapiens)
chain: MSWAARPPFLPQRHAAGQCGPVGVRKEMHCGVASRWRRRRPWLDPAAAAAAAVAGGEQQTPEPEPGEAGRDGMGDSGRDSRSPDSSSPNPLPQGVPPPSPPGPPLPPSTAPSLGGSGAPPPPPMPPPPLGSPFPVISSSMGSPGLPPPAPPGFSGPVSSPQINSTVSLPGGGSGPPEDVKPPVLGVRGLHCPPPPGGPGAGKRLCAICGDRSSGKHYGVYSCEGCKGFFKRTIRKDLTYSCRDNKDCTVDKRQRNRCQYCRYQKCLATGMKREAVQEERQRGKDKDGDGEGAGGAPEEMPVDRILEAELAVEQKSDQGVEGPGGTGGSGSSPNDPVTNICQAADKQLFTLVEWAKRIPHFSSLPLDDQVILLRAGWNELLIASFSHRSIDVRDGILLATGLHVHRNSAHSAGVGAIFDRVLTELVSKMRDMRMDKTELGCLRAIILFNPDAKGLSNPSEVEVLREKVYASLETYCKQKYPEQQGRFAKLLLRLPALRSISLKCLEHLFFFKLIGDTPIDTFLMEMLEAPHQLA
modifications: ligand binding domain only
B4: T473E: HsRXRβ ligand binding domain substitution mutant (protein, listed as Homo sapiens)
chain: MSWAARPPFLPQRHAAGQCGPVGVRKEMHCGVASRWRRRRPWLDPAAAAAAAVAGGEQQTPEPEPGEAGRDGMGDSGRDSRSPDSSSPNPLPQGVPPPSPPGPPLPPSTAPSLGGSGAPPPPPMPPPPLGSPFPVISSSMGSPGLPPPAPPGFSGPVSSPQINSTVSLPGGGSGPPEDVKPPVLGVRGLHCPPPPGGPGAGKRLCAICGDRSSGKHYGVYSCEGCKGFFKRTIRKDLTYSCRDNKDCTVDKRQRNRCQYCRYQKCLATGMKREAVQEERQRGKDKDGDGEGAGGAPEEMPVDRILEAELAVEQKSDQGVEGPGGTGGSGSSPNDPVTNICQAADKQLFTLVEWAKRIPHFSSLPLDDQVILLRAGWNELLIASFSHRSIDVRDGILLATGLHVHRNSAHSAGVGAIFDRVLTELVSKMRDMRMDKTELGCLRAIILFNPDAKGLSNPSEVEVLREKVYASLEEYCKQKYPEQQGRFAKLLLRLPALRSIGLKCLEHLFFFKLIGDTPIDTFLMEMLEAPHQLA
modifications: ligand binding domain only
B5: G321L/P322R/G323V: HsRXRβ ligand binding domain triple substitution mutant (SEQ ID NO: 2) (protein, listed as Homo sapiens)
chain: MSWAARPPFLPQRHAAGQCGPVGVRKEMHCGVASRWRRRRPWLDPAAAAAAAVAGGEQQTPEPEPGEAGRDGMGDSGRDSRSPDSSSPNPLPQGVPPPSPPGPPLPPSTAPSLGGSGAPPPPPMPPPPLGSPFPVISSSMGSPGLPPPAPPGFSGPVSSPQINSTVSLPGGGSGPPEDVKPPVLGVRGLHCPPPPGGPGAGKRLCAICGDRSSGKHYGVYSCEGCKGFFKRTIRKDLTYSCRDNKDCTVDKRQRNRCQYCRYQKCLATGMKREAVQEERQRGKDKDGDGEGAGGAPEEMPVDRILEAELAVEQKSDQGVELRVGTGGSGSSPNDPVTNICQAADKQLFTLVEWAKRIPHFSSLPLDDQVILLRAGWNELLIASFSHRSIDVRDGILLATGLHVHRNSAHSAGVGAIFDRVLTELVSKMRDMRMDKTELGCLRAIILFNPDAKGLSNPSEVEVLREKVYASLETYCKQKYPEQQGRFAKLLLRLPALRSIGLKCLEHLFFFKLIGDTPIDTFLMEMLEAPHQLA
B6: D450E/A451V/K452R: HsRXRβ ligand binding domain triple substitution mutant (protein)
chain: MGPKKKRKVAPPTDVSLGDELHLDGEDVAMAHADALDDFDLDMLGDGDSPGPGFTPHDSAPYGALDMADFEFEQMFTDALGIDEYGGEFPAPEEMPVDRILEAELAVEQKSDQGVEGPGGTGGSGSSPNDPVTNICQAADKQLFTLVEWAKRIPHFSSLPLDDQVILLRAGWNELLIASFSHRSIDVRDGILLATGLHVHRNSAHSAGVGAIFDRVLTELVSKMRDMRMDKTELGCLRAIILFNPEVRGLSNPSEVEVLREKVYASLETYCKQKYPEQQGRFAKLLLRLPALRSIGLKCLEHLFFFKLIGDTPIDTFLMEMLEAPHQLA
B7: S455K/N456S/P457A/S458Q: HsRXRβ ligand binding domain quadruple substitution mutant (protein)
chain: MGPKKKRKVAPPTDVSLGDELHLDGEDVAMAHADALDDFDLDMLGDGDSPGPGFTPHDSAPYGALDMADFEFEQMFTDALGIDEYGGEFPAPEEMPVDRILEAELAVEQKSDQGVEGPGGTGGSGSSPNDPVTNICQAADKQLFTLVEWAKRIPHFSSLPLDDQVILLRAGWNELLIASFSHRSIDVRDGILLATGLHVHRNSAHSAGVGAIFDRVLTELVSKMRDMRMDKTELGCLRAIILFNPDAKGLKSAQEVEVLREKVYASLETYCKQKYPEQQGRFAKLLLRLPALRSIGLKCLEHLFFFKLIGDTPIDTFLMEMLEAPHQLA
B8: C475T/K476R/Q477T/K478T/Y479H: HsRXRβ ligand binding domain quintuple substitution mutant (protein)
chain: MGPKKKRKVAPPTDVSLGDELHLDGEDVAMAHADALDDFDLDMLGDGDSPGPGFTPHDSAPYGALDMADFEFEQMFTDALGIDEYGGEFPAPEEMPVDRILEAELAVEQKSDQGVEGPGGTGGSGSSPNDPVTNICQAADKQLFTLVEWAKRIPHFSSLPLDDQVILLRAGWNELLIASFSHRSIDVRDGILLATGLHVHRNSAHSAGVGAIFDRVLTELVSKMRDMRMDKTELGCLRAIILFNPDAKGLSNPSEVEVLREKVYASLETYTRTTHPEQQGRFAKLLLRLPALRSIGLKCLEHLFFFKLIGDTPIDTFLMEMLEAPHQLA
B9: E481D/Q482E/Q483P: HsRXRβ ligand binding domain triple substitution mutant (protein)
chain: MGPKKKRKVAPPTDVSLGDELHLDGEDVAMAHADALDDFDLDMLGDGDSPGPGFTPHDSAPYGALDMADFEFEQMFTDALGIDEYGGEFPAPEEMPVDRILEAELAVEQKSDQGVEGPGGTGGSGSSPNDPVTNICQAADKQLFTLVEWAKRIPHFSSLPLDDQVILLRAGWNELLIASFSHRSIDVRDGILLATGLHVHRNSAHSAGVGAIFDRVLTELVSKMRDMRMDKTELGCLRAIILFNPDAKGLSNPSEVEVLREKVYASLETYCKQKYPDEPGRFAKLLLRLPALRSIGLKCLEHLFFFKLIGDTPIDTFLMEMLEAPHQLA

The assay deals with GAL4/CfEcR-DEF and pFRLuc in NIH3T3 cells. The assay is classed as cell-based, mouse. Particulars: 0.04-25 μM GS™-E, compared to wild-type HsRXRβ-EF. As to the method: The resulting PCR nucleic acid products encoding the mutant RXR ligand binding domains were then each fused to a VP16 transactivation domain as described in Examples 1.3 and 1.6 above. The VP16/mutant RXR receptor constructs were tested for activity by transfecting them into NIH3T3 cells along with GAL4/CfEcR-DEF and pFRLuc in the presence of non-steroid ligand.
DNAs corresponding to the various switch constructs outlined in Example 1.1-1.6 were transfected into mouse NIH3T3 cells (ATCC) as follows. Standard methods for culture and maintenance of the cells were followed. […] Superfect™ (Qiagen Inc.) was used as the transfection reagent. For 12-well plates, 4 μl of Superfect™ was mixed with 100 μl of growth medium. One μg of reporter construct and 0.25 μg of each receptor construct of the receptor pair to be analyzed were added to the transfection mix. […] The cells were harvested and reporter activity was assayed.
Cells were harvested 40 hours after adding ligand. […] Twenty μl of lysate were assayed. […]
The cells were harvested and reporter activity was assayed as described above.
As discussed above, a CfEcR-based gene regulation system is ligand dependent when RXRs are used as the heterodimeric partner and ligand independent when USPs are used as the heterodimeric partner. However, reporter gene expression is induced at very high levels when CfUSP is used as the heterodimeric partner. To improve RXR as heterodimeric partner, Applicants have aligned the polypeptide sequences of several USP and RXR ligand binding domains (domains EF) and identified amino acid residues that are different between these two nuclear receptor family members. In particular, Applicants identified residues that are conserved in all USPs but are different in RXRs and mutated these residues in HsRXRβ. […] The cells were harvested and reporter activity was assayed as described above.
Consider B1, for which the non-steroid ligand sensitivity result is on record as “improved non-steroid ligand sensitivity”.
Regarding B2, the non-steroid ligand sensitivity entry is “improved ligand sensitivity”.
As for B3, the entry is “improved ligand sensitivity”.
As for B4, the entry is “improved non-steroid ligand sensitivity”.
Next, B5: “improved ligand sensitivity”.
With B6, the non-steroid ligand sensitivity result is reported as “improved non-steroid ligand sensitivity”.
Take B7: the non-steroid ligand sensitivity result is reported as “improved non-steroid ligand sensitivity”.
Next, B8: “improved non-steroid ligand sensitivity”; B9: “improved non-steroid ligand sensitivity”.
